Data on 3 molecules can be found in article PMC9844003 (2023).

Test [1] concerns the target T1, extracellular domain of CD47 fused to a His(×6)-Avi-tag (human). Put plainly: SPR; pH 6.8. A general note: In SPR one partner is held on a chip, and binding of the other changes the refractive index at the surface.
Test [2] deals with T2, cell-surface CD47 on Raji, Jurkat and MDA-231 tumor cells (human (endogenous in Raji, Jurkat, …, UniProt Q08722 19-323)). Kind of test: FACS; Jurkat, pH 7.4, competition with bio-SIRPα-Fc.
T2 sequence (Q08722 19-323): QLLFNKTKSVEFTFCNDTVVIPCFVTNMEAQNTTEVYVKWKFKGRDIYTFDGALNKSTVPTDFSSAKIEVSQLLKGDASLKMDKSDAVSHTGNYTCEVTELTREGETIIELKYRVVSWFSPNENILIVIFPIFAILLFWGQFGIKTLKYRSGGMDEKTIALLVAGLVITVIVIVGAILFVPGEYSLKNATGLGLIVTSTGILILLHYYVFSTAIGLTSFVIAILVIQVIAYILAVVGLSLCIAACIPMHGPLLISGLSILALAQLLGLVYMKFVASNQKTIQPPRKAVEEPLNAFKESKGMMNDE
Test [3] concerns the target T1, extracellular domain of CD47 fused to a …. Put plainly: ELISA; pH 7.0.
The target of test [4] is T2, cell-surface CD47 on Raji, Jurkat and …. Kind of test: FACS; Raji, pH 7.4.
Test [5] has as its target T3, full-length human CD47 stably expressed on CHO cells (CHO-hCD47) (human, UniProt Q08722 19-323). Put plainly: FACS; pH 7.4, competition with bio-SIRPα-Fc. For orientation: A flow cytometer gives signals particle by particle.
Test [6] concerns the target T1, extracellular domain of CD47 fused to a …. Kind of test: ELISA; pH 6.6. (In general: An ELISA detects its analyte on a solid surface through an enzyme-linked reagent.)
The target in test [7] is T2, cell-surface CD47 on Raji, Jurkat and …. Put plainly: FACS; MDA-231, pH 7.4.
Test [8] has as its target T1, extracellular domain of CD47 fused to a …. Kind of test: ELISA; pH 6.4.
Test [9] concerns the target T2, cell-surface CD47 on Raji, Jurkat and …. Put plainly: FACS; Jurkat, pH 6.8, competition with bio-SIRPα-Fc.
The target is the same in test [10]. Put plainly: FACS; MDA-231, pH 6.8.
In test [11] the target is T1, extracellular domain of CD47 fused to a …. Put plainly: ELISA; pH 7.2.
The target in test [12] is T2, cell-surface CD47 on Raji, Jurkat and …. Put plainly: FACS; Raji, pH 7.4, competition with bio-SIRPα-Fc.
The target in test [13] is T1, extracellular domain of CD47 fused to a …. Put plainly: ELISA; pH 7.4.
In test [14] the target is T3, full-length human CD47 stably expressed …. Put plainly: FACS; pH 7.4.
Test [15] concerns the target T2, cell-surface CD47 on Raji, Jurkat and …. Put plainly: FACS; Jurkat, pH 7.4.
The target is the same in test [16]. Put plainly: FACS; MDA-231, pH 6.8, competition with bio-SIRPα-Fc.
For test [17] the target is unchanged. Put plainly: FACS; Raji, pH 6.8, competition with bio-SIRPα-Fc.
Test [18] has the same target. Kind of test: FACS; MDA-231, pH 7.4, competition with bio-SIRPα-Fc.
Test [19] concerns the target T1, extracellular domain of CD47 fused to a …. Put plainly: ELISA; pH 7.6.
Test [20] deals with T3, full-length human CD47 stably expressed …. Kind of test: FACS; pH 6.8.
For test [21], the target named is T2, cell-surface CD47 on Raji, Jurkat and …. Kind of test: FACS; Jurkat, pH 6.8.
The target of test [22] is T1, extracellular domain of CD47 fused to a …. Put plainly: ELISA; pH 6.2.
The target is the same in test [23]. Kind of test: SPR; pH 7.4.
The target in test [24] is T2, cell-surface CD47 on Raji, Jurkat and …. Kind of test: FACS; Raji, pH 6.8.
In test [25] the target is T3, full-length human CD47 stably expressed …. Kind of test: FACS; pH 6.8, competition with bio-SIRPα-Fc.
In test [26] the target is T1, extracellular domain of CD47 fused to a …. Kind of test: ELISA; pH 6.8.

T3 sequence (Q08722 19-323): as above
T1 sequence (chain, as listed by the source): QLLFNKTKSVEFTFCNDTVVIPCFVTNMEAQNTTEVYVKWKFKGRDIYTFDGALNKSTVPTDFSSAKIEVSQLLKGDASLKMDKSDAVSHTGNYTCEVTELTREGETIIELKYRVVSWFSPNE

B1: BC31M5 (hIgG1 form) (antibody, V domains shown)
VH: QVQLVQSGAEVKKPGASVKVSCKASGYTFTSYGISWVRQAPGQGLEWMGWISAYNGNTNYAQKLQGRVTMTTDTSTSTAYMELRSLRSDDTAVYYCARGTVYFDYWGQGTLVTVSS
VL: EIVLTQSPATLSLSPGERATLSCRASQSLSRNHLAWYQQKPGQPPRLLIHWASTRESGVPDRFSGSGSGTDFTLTISSLQAEDVAVYYCQQHTQNTWTFGQGTKVEIK
In general, Kd refers to the constant that tells how readily two partners part at equilibrium. A higher Kd goes with lower affinity. One may read the IC50 as the point on the concentration scale where inhibition reaches its midpoint. High values mean weaker potency, low ones greater potency. As a reminder, the EC50 is the concentration at which the effect is half-maximal. Turning to B1, the dissociation constant (Kd) in test [1] is 3.6 nM; in test [23] it was 6.9 nM. Further, the concentration for half-maximal inhibition (IC50) in [2] amounted to 17.2 nM; in test [5], 5.9 nM; in [9], 4.2 nM; in test [12], 6.7 nM; in [16], 1.7 nM; in [17], 1.2 nM. Further, the IC50 in test [18] was 9.3 nM; in test [25] it was 4.1 nM. Also, the concentration for a half-maximal effect (EC50) turned out to be 0.04 nM in [3]; 4 nM in test [4]; 0.05 nM in test [6]; 3.3 nM in test [7]; 0.05 nM in test [8]; 1.2 nM in [10]. Besides, the EC50 stood at 0.04 nM in [11]; 0.04 nM in [13]; 4.1 nM in [14]; 2 nM in test [15]; 0.06 nM in [19]; 4.8 nM in [20]. In addition, the EC50 in test [21] stood at 1.5 nM; in test [22], 0.06 nM; in test [24], 0.7 nM; in test [26], 0.04 nM.

B2: BC27 (hIgG1 form) (antibody, V domains shown)
VH: QVQLVQSGAEVKKPGASVKVSCKASGYTFTSYGISWVRQAPGQGLEWMGWISAYNGNTNYAQKLQGRVTMTTDTSTSTAYMELRSLRSDDTAVYYCARGKVYFDYWGQGTLVTVSS
VL: EIVLTQSPATLSLSPGERATLSCRASQSLSRNHLAWYQQKPGQPPRLLIHWASTRESGVPDRFSGSGSGTDFTLTISSLQAEDVAVYYCQQYYTASWTFGQGTKVEIK
With B2, binding in test [23] was put at a Kd of 1170 nM.

B3: BC31M4 (hIgG1 form) (antibody, V domains shown)
VH: QVQLVQSGAEVKKPGASVKVSCKASGYTFTSYGISWVRQAPGQGLEWMGWISAYNGNTNYAQKLQGRVTMTTDTSTSTAYMELRSLRSDDTAVYYCARGAVYFDYWGQGTLVTVSS
VL: EIVLTQSPATLSLSPGERATLSCRASQSLSRNHLAWYQQKPGQPPRLLIHWASTRESGVPDRFSGSGSGTDFTLTISSLQAEDVAVYYCQQHTQNTWTFGQGTKVEIK
As to B3, the EC50 was 0.04 nM in test [3]; ~92 nM in test [4]; ~231 nM in test [7]; 8.5 nM in test [10]; 0.11 nM in [11]; 0.51 nM in [13]. Further, the EC50 in [14] is ~21.4 nM; in test [15], ~131 nM; in [20] it was 4.8 nM; in test [21] it was 1.54 nM; in [24], 6.8 nM. In addition, the half-maximal inhibitory concentration (IC50) in test [5] is ~30.4 nM; in test [9], 35 nM; in test [16], 22.7 nM; in test [17], 19.9 nM; in test [18], ~507 nM; in test [25] it was 5.4 nM. The molecule further came in with a Kd in test [23] of 457 nM.
